Consider four substances from paper PMC3164876.

Test [1] concerns the target SC1918/H1 (A/South Carolina/1/1918 (H1N1)) HA ectodomain (influenza A virus A/South Carolina/1/1918 (H1N1)) (UniProt Q9WFX3). Nature of the test: SPR. On the technique in general: SPR reads the build-up and loss of mass on a sensor chip optically.
Test [2] deals with HB36 Asp47Ser, displayed on yeast. In words: flow cytometry on cells. For orientation: A flow cytometer gives signals particle by particle.
In test [3] the target is HB36.3 (HB36 Asp47Ser, Ala60Val), displayed on yeast. Nature of the test: flow cytometry on cells.
Test [4] has as its target HB36.4 (HB36 Asp47Ser, Ala60Val, Asn64Lys), displayed on yeast. In words: flow cytometry on cells.
The target in test [5] is HB80 Asn36Lys, displayed on yeast. Nature of the test: flow cytometry on cells.
For test [6], the target named is HB80 Met26Thr Asn36Lys, displayed on yeast. In words: flow cytometry on cells.
Test [7] deals with HB80 Met26Thr, displayed on yeast. Nature of the test: flow cytometry on cells.
Test [8] has as its target HB80 Δ54–95, Met26Thr, Asn36Lys, displayed on yeast. Nature of the test: flow cytometry on cells.
Test [9] concerns the target HB80.3 (HB80 Δ54–95, Asp12Gly, Ala24Ser, Met26Thr, Asn36Lys), displayed on yeast. Nature of the test: flow cytometry on cells.

The term Kd denotes the free concentration of one partner at which half of the binding sites on the other are occupied at equilibrium, for simple one-to-one binding. A lower Kd goes with higher affinity.

For the substance “HB36.3 (HB36 Asp47Ser, Ala60Val), purified from E. coli (designed binder)”, the dissociation constant (Kd) in test [1] turned out to be 29 nM.
Still for that read-out and setting: for “HB36.4 (HB36 Asp47Ser, Ala60Val, Asn64Lys), purified from E. coli (designed binder)” the value was 22 nM; for “HB80.3 (HB80 Δ54–95, Asp12Gly, Ala24Ser, Met26Thr, Asn36Lys), purified from E. coli (designed binder)”, 38 nM.
Turning to “SC1918/H1 (A/South Carolina/1/1918 (H1N1)) HA ectodomain (from UniProt Q9WFX3 18-529) (domain or fragment)”, the dissociation constant (Kd) amounted to 5 nM in test [2]; 4 nM in test [3]; 4 nM in [4]; 300 nM in [5]; 7.5 nM in test [6]; 100 nM in [7]. Also, the dissociation constant Kd in [8] worked out at 5 nM; in [9] it was 3 nM.
